Numbering of substitutions follows the chain as printed.
T1: CHO hOPGL 140 (human, UniProt O14788)
T1 chain: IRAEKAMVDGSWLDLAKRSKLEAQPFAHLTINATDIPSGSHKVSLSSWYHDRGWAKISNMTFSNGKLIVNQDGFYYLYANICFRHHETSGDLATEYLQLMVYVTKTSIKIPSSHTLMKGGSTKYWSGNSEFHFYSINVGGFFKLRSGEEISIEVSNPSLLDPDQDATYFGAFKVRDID

T2: E. coli mOPGL 158 (mouse, UniProt O35235)
T2 chain: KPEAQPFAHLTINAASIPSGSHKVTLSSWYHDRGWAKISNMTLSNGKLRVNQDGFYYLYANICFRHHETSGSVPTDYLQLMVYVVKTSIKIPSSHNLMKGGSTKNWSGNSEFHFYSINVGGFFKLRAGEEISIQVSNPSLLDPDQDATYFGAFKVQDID

T3: FLAG-murine OPGL[158-316]/DE (mouse, UniProt O35235)
T3 chain: T2 chain with S72D, V73L, P74A, D76E

B1: 2D8 (antibody, V domains shown)
VH: EVQLVQSGGGLVHPGGSLRLSCAGSGFTFSSYGMHWVRQAPGKGLEWVSGIGTGGGTYYADSVKGRFTISRDNVKNSLYLQMNSLRAEDMAVYYCARKNWGWFDYWGQGTLVTVSS
VL: EIVLTQSPATLSLSPGERATLSCRASQSISSYLAWYQQKPGQAPRLLIYDASNRATGIPARFSGSGSGTDFTLTISSLEPEDFAVYYCQQRSKWPPYTFGQGTKLEIKR
B2: 16E1 (antibody, V domains shown)
VH: EVQLVQSGGGLVHPGGSLRLSCAGSGFTFSGHALHWVRQAPGKGLEWVSGIGTHGGTYYADSVKGRFTISRDNAKNSLFLQMNSLSAEDMAVYYCTRRNWGQFDYWGQGTLVTVSS
VL: B1 VL with I29V, K93N
B3: 22B3 (antibody, V domains shown)
VH: B1 VH with A23E, Y32N, A40T, G54A, N76K, V92I, A96V, Y105P, T110A
VL: B1 VL with I29V, S30N, Y36F, V85I, K93N, Y97F
B4: 9H7 (antibody, V domains shown)
VH: B1 VH with A23E, Y32N, A40T, G54A, N76K, V92I, A96V, N99D, Y105P, T110A
VL: B1 VL
B5: 18B2 (antibody, V domains shown)
VH: EVQLVQSGGGLVHPGGSLRLSCVGSRFTFSAYPMHWVRQAPGKGLEWVSGIGSGGGTNYADSVKGRFTISRDTAKNSLYLQMNSLRAEDMAVYYCARGRNSFDYWGQGTLVTVSS
VL: DIQMTQSPSSLSASVGDRVTITCRASQGISTWLAWYQQKPEKAPKSLIYAASSLQSGVPSRFSGSGSGTDFTLTISSLQPEDFATYYCQQYNSYPPTFGQGTKVEIKR
B6: 2E11 (antibody, V domains shown)
VH: EVQLVQSGGDLVHPGGSLRLSCVGSGFTFSHYPLHWVRQAPGKGLEWISGIHTGGGTYYTDSVKGRFTISSDNAKNSLYLQMNTLRAEDMAVYYCARGRNSFDYWGQGTLVIVSS
VL: B5 VL with T31S, P80S, K103R, V104L

Molecular target: T1, CHO hOPGL 140
Assay: SPR
For B1, the Kd was 92 pM. Work on B2 yielded a Kd of 63.3 pM. B3 was tested, and the Kd was 33.7 pM. B4 showed a Kd of 193 pM. With B5 the Kd was 211 pM. B6 showed a Kd of 292 pM.

Molecular target: T2, E. coli mOPGL 158
Assay: SPR
B2: no binding. B3: no binding. B4: no binding. B6: no binding.

Molecular target: T3, FLAG-murine OPGL[158-316]/DE
Assay: ELISA
B5: no binding. B6: no binding.

Molecular target: T2, E. coli mOPGL 158
Assay: ELISA
B1: no binding. B5: no binding.

— patent publication US20100209435 (published 2010)
